Numbering of substitutions follows the chain as printed. Names and notes keep the numbering of the source.

In test [1] the target is T1, human neonatal Fc receptor (hFcRn) (human, UniProt P55899 24-297; P61769 21-119, limits assumed).
T1 construct: Immobilised on the CM5 chip, pH 6.0
Put plainly: SPR (Biacore 2000), FcRn immobilised, pH 6.0, antibody 2000-62.5 nM; pH 6.0.

In test [2] the target is T1, human neonatal Fc receptor (hFcRn). Put plainly: SPR (Biacore 2000), FcRn immobilised, pH 6.0, antibody 200-6.25 nM.
For test [3] the target is unchanged. Put plainly: SPR (Biacore 2000), FcRn immobilised, pH 6.0, antibody 2000-62.5 nM. In general terms: Surface plasmon resonance follows binding to a sensor surface in real time, without labels.
The target in test [4] is T2, integrin αvβ5 on human colorectal cancer cell lines SW480 and LoVo (human, UniProt P06756 31-1048; P18084 24-799).
T2 construct: whole, on cells; also called integrin ανβ5
Put plainly: flow cytometry, 500 nM antibody, Alexa488 anti-human Fc. Background: A flow cytometer gives signals particle by particle.

The target of test [5] is T3, integrin αvβ3 on integrin αvβ3-expressing K562 cells (UniProt P06756 31-1048; P05106 27-788, limits assumed).
T3 construct: whole, on cells; also called integrin ανβ3
Described as above.

Test [6] addresses T4, EpCAM (epithelial cell adhesion molecule) on human colorectal cancer cell lines SW480 and LoVo (human, UniProt P16422 24-314).
T4 construct: whole, on cells; also called cell-surface EpCAM
T4 sequence (looked up): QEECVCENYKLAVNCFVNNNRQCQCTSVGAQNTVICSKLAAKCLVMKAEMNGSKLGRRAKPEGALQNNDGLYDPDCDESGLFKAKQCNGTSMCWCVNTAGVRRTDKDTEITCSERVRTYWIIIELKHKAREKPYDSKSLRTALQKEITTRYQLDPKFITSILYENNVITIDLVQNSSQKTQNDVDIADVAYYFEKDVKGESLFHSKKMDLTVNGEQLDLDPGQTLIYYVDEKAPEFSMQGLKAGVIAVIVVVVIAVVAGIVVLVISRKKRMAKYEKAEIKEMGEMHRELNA
Described as above.

In test [7] the target is T4, EpCAM (epithelial cell adhesion …). Nature of the test: flow cytometry on LoVo cells, 100 nM antibody, Alexa488 anti-human Fc.

B1: epRas13 (RT22 VH, IgG1 N434D, hT4-ep59 GSSG light chain) (antibody)
heavy: not shown
VL: EHLHCLGSLCWPGSSGDIQMTQSPSSLSASVGDRVTITCKSSQSLLNSRDGKNYLAWYQQKPGKAPKLLIYWASTRESGVPSRFSGSGSGTDFTLTISSLQPEDFATYFCQQYWYWMYTFGQGTKVEIKR
As usually defined, the Kd is the equilibrium constant for the complex coming apart. Higher therefore signals weaker binding. Turning to B1, the dissociation constant (Kd) in test [1] amounted to 2700 nM.

B2: epRas03 (RT22 VH, IgG1, hT4-ep59 GSSG light chain) (antibody)
heavy: not shown
VL: B1 VL
notes: Differs from epRas03 MG by the linker of the light chain
Take B2: binding in test [2] was characterised by a dissociation constant (Kd) of 148 nM.

B3: epRas83 (RT22 VH, IgG1 LALA-PG, N434D, hT4-ep59 GSSG light chain) (antibody)
heavy: not shown
VL: B1 VL
In test [3], B3 showed a Kd of 3570 nM.

B4: RT22-i38 MG (antibody, IgG1, V domains shown)
VH: EVQLVESGGGLVQPGGSLRLSCAASGFTFSDFSMSWVRQAPGKGLEWVSYISRTSHTTYYADSVKGRFTISRDNSKNTLYLQMNSLRAEDTAVYYCARGFKMDYWGQGTLVTVSS
VL: DLVMTQSPSSLSASVGDRVTITCKSSQSLLNSRTGKTYLAWYQQKPGKAPKLLIYWASTRESGVPSRFSGSGSGTDFTLTISSLQPEDFATYFCQQYWYWMYTFGQGTKVEIKR
notes: Intact IgG1,κ
As to B4, the binding result in test [4] and in test [5] was “binds” in each case.

B5: RT22-i39 MG (antibody, IgG1, V domains shown)
VH: B4 VH
VL: DGARYCRGDCFDGMGSSSNDLVMTQSPSSLSASVGDRVTITCKSSQSLLNSRDGKNYLAWYQQKPGKAPKLLIYWASTRESGVPSRFSGSGSGTDFTLTISSLQPEDFATYFCQQYWYWMYTFGQGTKVEIKR
notes: Intact IgG1,κ
For B5, the binding result in test [4] and in test [5] was “binds” throughout.

B6: RT22-ep58 MG (antibody, IgG1, V domains shown)
VH: B4 VH
VL: B4 VL with L2I, V3Q
notes: Intact IgG1,κ
As for B6, in test [6], the binding result was “binds”.

B7: RT22-ep59 MG (antibody, human IgG1)
heavy: not shown
VL: EHLHCLGSLCWPMGSSSNDIQMTQSPSSLSASVGDRVTITCKSSQSLLNSRDGKNYLAWYQQKPGKAPKLLIYWASTRESGVPSRFSGSGSGTDFTLTISSLQPEDFATYFCQQYWYWMYTFGQGTKVEIKR
notes: also called epRas03 MG
On to B7, for which the binding result in test [6] is “binds”.

B8: epRas23 MG (antibody, human IgG1)
heavy: not shown
VL: B7 VL
As to B8, the binding result in test [7] was “binds”.

Values taken from patent US20200339681A1 (ORUM THERAPEUTICS, published 2020).
